Assay results reported in paper PMC11718114.

Key:
[1] = target: PI3Kα-RBD, PIK3CA-RBD(157-289) (human) (UniProt P42336); test: ITC; RAS GTPase (GMPPNP-bound, 300–500 μM) in the syringe, PI3K isoform or PI3Kα-RBD (30–50 μM) in the cell; 25 °C; 20 mM HEPES pH 7.4, 150 mM NaCl, 5 mM MgCl2, 1 mM TCEP; one set of sites; two replicates
PI3Kα-RBD-T208A (human) = PI3Kα-RBD-T208A (human) (UniProt P42336); test: as above
[2] = target: PI3Kα: p110α(2-1068) W1057A/I1058A/F1059A + p85(322-600) (human) (UniProt P42336); test: ITC; GMPPNP-bound RAS (300–500 μM) in the syringe, PI3K isoform or PI3Kα-RBD (30–50 μM) in the cell; 25 °C; 20 mM HEPES pH 7.4, 150 mM NaCl, 5 mM MgCl2, 1 mM TCEP; one set of sites; duplicates
[3] = target: PI3Kδ: p110δ(1-1044) + p85(322-600) (human) (UniProt O00329); test: as above
[4] = target: p110α-RBD(157-289) K206A (human) (UniProt P42336); test: as above
[5] = target: p110α-RBD(157-289) K210A (human) (UniProt P42336); test: as above
[6] = target: p110α-RBD(157-289) T208A (human) (UniProt P42336); test: as above
PI3Kα-RBD-K206A (human) = PI3Kα-RBD-K206A (human) (UniProt P42336); test: ITC; RAS GTPase (GMPPNP-bound, 300–500 μM) in the syringe, PI3K isoform or PI3Kα-RBD (30–50 μM) in the cell; 25 °C; 20 mM HEPES pH 7.4, 150 mM NaCl, 5 mM MgCl2, 1 mM TCEP; one set of sites; two replicates
PI3Kα-RBD-K210A (human) = PI3Kα-RBD-K210A (human) (UniProt P42336); test: as above
PI3Kα-RBD-Q205A (human) = PI3Kα-RBD-Q205A (human) (UniProt P42336); test: as above
PI3Kα-RBD-S231A (human) = PI3Kα-RBD-S231A (human) (UniProt P42336); test: as above
[7] = target: PI3Kα-RBD, PIK3CA-RBD(157-289) (human) (UniProt P42336); test: ITC; GMPPNP-bound RAS (300–500 μM) in the syringe, PI3K isoform or PI3Kα-RBD (30–50 μM) in the cell; 25 °C; 20 mM HEPES pH 7.4, 150 mM NaCl, 5 mM MgCl2, 1 mM TCEP; one set of sites; duplicates

Kd [1] [µM] | stoichiometry N [1] [sites] | Substance | other results
6.4 | 0.9 | RRAS2-R63A, GMPPNP-bound (from UniProt P62070 1-179) (domain or fragment) | –
16.1 | 0.89 | RRAS2-D42E, GMPPNP-bound (from UniProt P62070 1-179) (domain or fragment) | –
– | – | MRAS, GMPPNP-bound (from UniProt O14807 1-178) (domain or fragment) | Kd (PI3Kα-RBD-T208A (human)): 19.5 µM; stoichiometry N (PI3Kα-RBD-T208A (human)): 0.93 sites
– | – | MRAS (wild type) (from UniProt O14807 1-178) (domain or fragment) | Kd [2]: 5.3 µM; dH [2]: -71.1 kJ/mol
21.5 | 1.11 | RRAS2-F75A, GMPPNP-bound (from UniProt P62070 1-179) (domain or fragment) | –
66.9 | 1.2 | RRAS2-D42A, GMPPNP-bound (from UniProt P62070 1-179) (domain or fragment) | –
4.3 | 0.92 | RRAS2-Y38F, GMPPNP-bound (from UniProt P62070 1-179) (domain or fragment) | –
– | – | RRAS2 (wild type) (from UniProt P62070 1-179) (domain or fragment) | Kd [2]: 3.9 µM; dH [2]: -71.1 kJ/mol; Kd [3]: 14 µM; fold reduction in affinity against wild-type p110α-RBD [4]: 15 fold; fold decrease in affinity against wild-type p110α-RBD [5]: 5 fold; fold decrease in affinity against wild-type p110α-RBD [6]: 5 fold
28.2 | 0.81 | RRAS2-D44A, GMPPNP-bound (from UniProt P62070 1-179) (domain or fragment) | –
14.2 | 0.85 | RRAS2-Q72H, GMPPNP-bound (from UniProt P62070 1-179) (domain or fragment) | –
32.4 | 0.92 | RRAS2-E48A, GMPPNP-bound (from UniProt P62070 1-179) (domain or fragment) | –
6.4 | 0.75 | RRAS2-G23D, GMPPNP-bound (from UniProt P62070 1-179) (domain or fragment) | –
12.8 | 0.91 | RRAS2-G23V, GMPPNP-bound (from UniProt P62070 1-179) (domain or fragment) | –
8.5 | 0.88 | RRAS2-Q72L, GMPPNP-bound (from UniProt P62070 1-179) (domain or fragment) | –
134 | 1.2 | RRAS2-M78A, GMPPNP-bound (from UniProt P62070 1-179) (domain or fragment) | –
12.4 | 0.83 | RRAS2-E74A, GMPPNP-bound (from UniProt P62070 1-179) (domain or fragment) | –
28.5 | 1.01 | RRAS2-T52R, GMPPNP-bound (from UniProt P62070 1-179) (domain or fragment) | –
– | – | RRAS2, GMPPNP-bound (from UniProt P62070 1-179) (domain or fragment) | Kd (PI3Kα-RBD-K206A (human)): 107 µM; stoichiometry N (PI3Kα-RBD-K206A (human)): 0.92 sites; Kd (PI3Kα-RBD-K210A (human)): 41.7 µM; stoichiometry N (PI3Kα-RBD-K210A (human)): 0.81 sites; Kd (PI3Kα-RBD-Q205A (human)): 8.2 µM; stoichiometry N (PI3Kα-RBD-Q205A (human)): 0.86 sites; Kd (PI3Kα-RBD-S231A (human)): 8.3 µM; stoichiometry N (PI3Kα-RBD-S231A (human)): 0.88 sites; Kd (PI3Kα-RBD-T208A (human)): 45 µM; stoichiometry N (PI3Kα-RBD-T208A (human)): 0.9 sites
– | – | RRAS2 T52R (from UniProt P62070 1-179) (domain or fragment) | fold reduction in binding affinity against wild-type RRAS2 [7]: 7 fold
